Patent US7094554
pIC50, pKd: −log10 of the molar value.

What was measured:
[1] = biological target: P. gossypiella (pink bollworm) midgut brush border membrane vesicle (BBMV) proteins (Pectinophora gossypiella); test: saturation binding, fixed 125I-toxin with increasing BBMV
[2] = biological target: P. gossypiella (pink bollworm) midgut brush border membrane vesicle (BBMV) proteins (Pectinophora gossypiella); test: homologous competition assay, 125I-toxin on BBMV
[3] = biological target: P. gossypiella (pink bollworm) midgut brush border membrane vesicle (BBMV) proteins (Pectinophora gossypiella); test: competition with 125I-Cry1Ac on BBMV, 1000 nM unlabeled toxin
[4] = biological target: P. gossypiella (pink bollworm) midgut brush border membrane vesicle (BBMV) proteins (Pectinophora gossypiella); test: competition with 125I-Cry1Ac on BBMV
[5] = biological target: P. gossypiella (pink bollworm) midgut brush border membrane vesicle (BBMV) proteins (Pectinophora gossypiella); test: homologous competition, 125I-Cry1Aa against unlabeled Cry1Aa on BBMV
[6] = biological target: P. gossypiella (pink bollworm) midgut brush border membrane vesicle (BBMV) proteins (Pectinophora gossypiella); test: homologous competition, 125I-Cry1Ab against unlabeled Cry1Ab on BBMV
[7] = biological target: P. gossypiella (pink bollworm) midgut brush border membrane vesicle (BBMV) proteins (Pectinophora gossypiella); test: homologous competition, 125I-Cry1Ac against unlabeled Cry1Ac on BBMV

Substance | maximum saturable binding at 400 µg/ml of BBMV [1] [ng] | pKd [2] | concentration of binding sites (Bmax) [2] [pmol/mg] | percent reduction of 125I-Cry1Ac binding at 1000 nM [3] [%] | pIC50 [4] | pIC50 [5] | pIC50 [6] | fold difference in binding compared to Cry1Ab [1] [fold] | fold higher binding compared to Cry1Aa [1] [fold] | pIC50 [7]
Cry1Aa toxin (trypsinized 60 kD toxin) (from UniProt P0A366 29-619) (ligand) | 0.35 | 7.78 | 3.7 | 80 | 7.00 | 8.00 |  |  |  | 
Cry1Ab toxin (trypsinized 60 kD toxin) (from UniProt P0A370 29-620) (ligand) | 0.05 | 7.91 | 3.6 | 82 | 7.00 |  | 8.00 |  |  | 
Cry1Ac toxin (trypsinized 60 kD toxin) (from UniProt P05068 29-623) (ligand) | 1.5 | 7.89 | 8.6 | 95 | 8.00 |  |  | 30 | 4 | 8.00
